pKd: −log10 of the molar value.
Target: full-length H7 HA trimer (influenza A virus (H7))
Experiment: BLI

## CT149 Fab
  pKd: 8.43
  koff: 0.0031 s⁻¹
  kon: 360000 M⁻¹ s⁻¹

Source: article PMC6391921
